Experimental data: US9156883B2, “Binding molecules for human factor VIII and factor VIII-like proteins” (DYAX CORP., priority 1999, dated 2015)
Positions of bridges follow the written chain, without caps; N, C: chain ends. No end group written: not given here. *: point of attachment. NHNH2 = NN*

Target: T1, REFACTO® (Homo sapiens, UniProt P00451)
T1 construct: amino acids 1-743 and 1638 through 2332 of human factor VIII; purchased Genetics Institute, Inc. (Cambridge, Mass.)
T1 sequence (P00451 20-762): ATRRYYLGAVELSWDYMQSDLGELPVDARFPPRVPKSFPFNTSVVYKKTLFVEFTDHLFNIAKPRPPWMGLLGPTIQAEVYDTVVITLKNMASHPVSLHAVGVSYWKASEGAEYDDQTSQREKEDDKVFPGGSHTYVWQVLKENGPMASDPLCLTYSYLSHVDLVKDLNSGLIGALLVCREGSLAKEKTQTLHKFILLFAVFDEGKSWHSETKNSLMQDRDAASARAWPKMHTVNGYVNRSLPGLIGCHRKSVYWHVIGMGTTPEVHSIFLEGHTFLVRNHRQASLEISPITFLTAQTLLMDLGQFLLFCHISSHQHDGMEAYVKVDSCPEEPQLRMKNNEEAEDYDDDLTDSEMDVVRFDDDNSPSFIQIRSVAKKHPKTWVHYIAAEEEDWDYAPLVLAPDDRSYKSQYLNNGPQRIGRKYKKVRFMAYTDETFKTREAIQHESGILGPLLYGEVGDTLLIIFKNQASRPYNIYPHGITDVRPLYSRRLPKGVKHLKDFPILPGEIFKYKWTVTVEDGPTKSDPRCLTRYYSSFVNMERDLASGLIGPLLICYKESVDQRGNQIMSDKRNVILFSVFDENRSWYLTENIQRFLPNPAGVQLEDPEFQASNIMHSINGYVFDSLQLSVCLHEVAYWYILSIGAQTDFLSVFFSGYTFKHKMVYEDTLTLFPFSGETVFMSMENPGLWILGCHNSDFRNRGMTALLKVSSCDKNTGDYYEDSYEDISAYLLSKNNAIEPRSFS
T1 sequence (P00451 1657-2351): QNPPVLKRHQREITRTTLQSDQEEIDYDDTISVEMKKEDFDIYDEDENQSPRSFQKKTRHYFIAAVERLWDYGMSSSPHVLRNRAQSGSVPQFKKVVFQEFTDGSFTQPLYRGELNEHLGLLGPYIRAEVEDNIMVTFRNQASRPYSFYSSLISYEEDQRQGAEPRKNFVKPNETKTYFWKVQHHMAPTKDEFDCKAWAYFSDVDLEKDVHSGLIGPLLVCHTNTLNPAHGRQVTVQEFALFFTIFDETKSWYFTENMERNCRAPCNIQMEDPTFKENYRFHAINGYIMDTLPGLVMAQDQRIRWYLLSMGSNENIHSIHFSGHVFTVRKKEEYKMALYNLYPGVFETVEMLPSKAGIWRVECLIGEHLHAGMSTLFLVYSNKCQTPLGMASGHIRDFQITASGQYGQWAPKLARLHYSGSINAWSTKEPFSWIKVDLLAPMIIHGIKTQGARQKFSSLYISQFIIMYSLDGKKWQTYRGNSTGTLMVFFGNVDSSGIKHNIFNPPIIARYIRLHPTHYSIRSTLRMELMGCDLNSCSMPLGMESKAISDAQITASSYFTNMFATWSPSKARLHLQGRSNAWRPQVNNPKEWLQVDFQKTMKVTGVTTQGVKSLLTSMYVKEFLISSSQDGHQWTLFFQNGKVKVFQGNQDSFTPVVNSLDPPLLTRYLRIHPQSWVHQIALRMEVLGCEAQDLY
Experiment: Batch binding and elution of REFACTO® with immobilized polypeptide ligands (factor VIII sandwich ELISA)
Conditions: for % of Input Recovered in: Eluate: Buffer A, 50% ethylene glycol, pH 6.3, 15 minutes; for % of Input Recovered in: Unbound: REFACTO® ~50 U in Buffer 1, 1 h RT, supernatant after binding; for % of Input Recovered in: Total: Unbound, Wash and Eluate fractions together; for % of Input Recovered in: Wash: one wash with Buffer 1
From the text: A commercial ELISA kit (IMUBIND fVIII ELISA kit, Product #884, American, Inc., Greenwich, Conn.) developed to detect factor VIII was used according to the manufacturer's specifications in order to detect both the REFACTO® and the nhfVIII targets. The kit employs a sandwich ELISA assay in which the target is captured by an immobilized monoclonal antibody and the captured target is detected with a second monoclonal antibody-horseradish peroxidase (HRP) conjugate. Addition of the peroxidase substrate and its subsequent reaction with the HRP produces a blue color (detected at 630 nm) which changes to yellow (detected at 450 nm) on addition of the 0.5N sulfuric acid stop solution. Color response is calibrated with factor VIII standards provided by the manufacturer.
REFACTO® binding was tested in Buffer 1. The binding of both REFACTO® and nfhVIII were tested using three affinity resins prepared as in Example II, using the affinity peptides CS-454, CS-456, and CS-458 immobilized on Toyopearl Formyl 650-M medium. Ligand density for each polypeptide was 1.79 mg/ml (0.67 μmol/ml), 3.69 mg/ml ([…]) and 3.15 mg/ml (1.17 μmol/ml) respectively.
For each of the three immobilized peptides tested, peptide-beads from […] of a 50% slurry of Toyopearl-coupled polypeptide suspension were centrifuged briefly (30 seconds at 2000×g at room temperature), the supernatant fluid was removed, and the beads (pellets) were washed two times. For each wash, the beads were resuspended in 500 μl of Buffer 1 and centrifuged as before.
The stock solution of REFACTO® was diluted to a final concentration of 200 U/ml in Buffer 1 and 250 μl of the diluted solution (˜50 U total) was added to a washed pellet of each of the peptide-beads. The suspension was incubated on an end-over-end mixer at RT for one hour, after which binding period the beads were pelleted by centrifugation (30 seconds, 2000×g) and the supernatant solutions, representing the unbound fraction (“Unbound” in Table 7, below), were removed and retained for assay of unbound factor VIII activity.
The pelleted beads were washed one time by adding 250 μl of Buffer 1, mixed briefly and the suspension centrifuged as before. The supernatant solutions (“Wash” in Table 7) were removed and retained for assay of factor VIII activity.
The washed pellets were resuspended in 250 μl of Buffer A (20 mM L-Histidine-HCl, 250 mM NaCl, 20 mM CaCl2, 0.01% Tween 80, 50% ethylene glycol, pH 6.3) and incubated on an end-over-end mixer for 15 minutes at room temperature. At the end of the elution period, the suspensions were centrifuged as above. The supernatant solutions (“Eluate” in Table 7) were removed and retained for assay of eluted factor VIII activity.
The starting (diluted) REFACTO® solution (Input) and each sample (Unbound, Wash, and Eluate) taken as described above were diluted 1:1400 in Assay Diluent (provided with kit), then subjected to ELISA using the commercial factor VIII assay kit.

Row | Substance | % of Input Recovered in: Eluate | % of Input Recovered in: Unbound | % of Input Recovered in: Total | % of Input Recovered in: Wash
1 | AEGTGDFGCSWLFPCPFDPGPEGGGS-NHNH2 (disulfide 9-15 (inferred)) [CS-456] | 24% | 47% | 91% | 20%
2 | AEGTGDHLCGAWFRPCDADPGPEGGGS-NHNH2 (disulfide 9-16 (inferred)) [CS-454] | 49% | 24% | 85% | 
3 | AEGTGDFCWVFAFDHCHDPGPEGGGS-NHNH2 (disulfide 8-16 (inferred)) [CS-458] | 47% | 20% | 76% | 10%
